± gives the standard deviation of the averaged measurements.
System: ATP
Assay: switch fluorescence ratio, 500 uM ATP over buffer (Cy3 cluster intensity, sum of 5 cycles each) (fold (ratio)); higher = stronger signal-on switching upon ATP binding; sequences stand for … in TCGTCGGCAGCGTCAGATGTGTATAAGAGACAGTTTTTTTTTTTTTTTTTTTTTTTTT…TC
Conditions: aptamer strand: ATP DNA aptamer (quencher-CACCTGGGGGAGTATTGCGGAGGAAGG + anchor), 100 nM annealed; ATP concentration: 500 uM
Summary of the method: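 Imaging in selection buffer was followed by imaging after 15 min with 500 uM ATP at 22 °C, for Cy3-labelled switching-strand clusters annealed to 100 nM quencher-labelled ATP aptamer on a modified Illumina MiSeq flow-cell. Five of these buffer/ATP cycles ran, separated by NaOH stripping and re-annealing. The fluorescence ratio per cluster is summed target-cycle over summed buffer-cycle Cy3 intensity, averaged per switch-domain sequence; clusters outside 100-1000 RFU were removed.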
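Also: ATP exposure 15 min at 22 °C before imaging.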

Sequence	switch fluorescence ratio
ACCCGGCTTC	1.024 ± 0.0077
TGTTGCCAAT	1.01 ± 0.029
TGATCTTGTT	0.9619 ± 0.0037
AGTTGCGTCG	0.997 ± 0.031
AATATAACCT	1.94 ± 0.092
CGCGGAGCGC	1.17 ± 0.15
TTGGGAGAAA	0.9804 ± 0.0092
TATTGAGATG	0.998 ± 0.046
TTACGGGGAT	1.04 ± 0.016
CGCTTTGTGT	0.973 ± 0.032
TCGACACTGA	1.058 ± 0.0022
ACGGGATGGG	1.062 ± 0.01
AATCATGTGC	1 ± 0.04
CGGTTCTGTG	1 ± 0.012
ATTCTGGGTT	0.987 ± 0.032
GGAGACCTTT	1.03 ± 0.041
CCGGTTGCAT	4.54 ± 1.9
TTTCATGGCT	1.01 ± 0.035
CCAATTTATG	0.9919 ± 0.0078
TATGAGGGGT	1.13 ± 0.047
AAGGAATAGT	1.01 ± 0.026
GCAGTTGGTA	0.989 ± 0.02
TGCTGTTCTC	0.995 ± 0.018
GTGATGAGCG	0.979 ± 0.037
GTTAGCGCTT	0.974 ± 0.025

Sequence	switch fluorescence ratio
GCCTGAAAAA	0.986 ± 0.033
TCCCCAGCAC	3.1 ± 2.7
GGGACTGGTA	1 ± 0.049
GACGCTCATG	1.04 ± 0.033
CACGGGGGGT	1.02 ± 0.052
CTTGACAATT	1 ± 0.023
AACGAGTGAC	1.04 ± 0.019
CAGCAAGGGA	1.12 ± 0.025
GATTTAGACG	0.945 ± 0.06
GAAGTAGCGA	1.05 ± 0.015
TGTGGTTGGT	1.01 ± 0.032
GCCGGGGCCT	1.03 ± 0.042
TGGGAAATT	1.19 ± 0.19
TGGGGTTTTG	0.979 ± 0.015
TGCATGTTTG	0.975 ± 0.056
GGGTGTACTT	0.991 ± 0.023
GGGCATCTTT	1 ± 0.06
TGGTAGTAGG	0.995 ± 0.017
ATCGGAGGCA	1.0107 ± 0.00084
TATTAGTGGC	0.9403 ± 0.0088
GGAAAATAGG	0.977 ± 0.061
TCGGGGTGGG	1.03 ± 0.043
CTGGCATGGT	1 ± 0.011
TGGTCGGGGT	1.01 ± 0.013
ACTTGAGGGG	1.03 ± 0.043

Sequence	switch fluorescence ratio
TACTCTGAAA	2.38 ± 0.48
ACGGTTAAGG	1.03 ± 0.019
TACGTTGGGG	1 ± 0.028
GGGATTTCCG	0.992 ± 0.018
TTGGAAATTA	1.036 ± 0.0082
GTTTTCCACA	0.987 ± 0.067
TTCGAACACG	0.994 ± 0.028
AAGGTCCATG	0.9631 ± 0.0013
TTAGTTTATC	1.02 ± 0.027
GCGAGGGGGG	1.02 ± 0.034
ACATTGCGAC	1.137 ± 0.0028
CATGTGCTTC	1.03 ± 0.0077
AAACGTGAGT	0.985 ± 0.01
ATGGGCCCGT	1.01 ± 0.1
AGTGTATCCC	1.01 ± 0.034
TCTCCATTTA	1.04 ± 0.015
GGTGATTGTG	0.9826 ± 0.004
AGGTTGTTTG	1.01 ± 0.031
CGGAGGGATG	1.71 ± 0.66
GAACACTTCT	1.05 ± 0.014
ATTCGGTTTT	0.97 ± 0.013
GGGGCTTTAA	1.18 ± 0.35
GGTAGTTGCC	1.02 ± 0.034
GATAACCATG	0.9933 ± 0.0035
ATGGGTTACG	1 ± 0.033

Sequence	switch fluorescence ratio
AAAAAATTAG	0.996 ± 0.05
TGGTCCATTT	1.014 ± 0.0091
GATGTAGGGA	1.02 ± 0.029
TCACGGAAGT	1.022 ± 0.0036
TTAAGGCAAA	1.03 ± 0.019
ACATAGCTTG	1.03 ± 0.011
GATGGAAAAA	1.04 ± 0.012
TTGACTAAGG	1.01 ± 0.044
AGTGTGGTGC	0.9778 ± 0.0073
ACGGGTAATC	1.071 ± 0.0095
GGTAGGGGTT	1 ± 0.053
TCGCTAGATG	1.4 ± 0.52
GGATTCATGG	1.01 ± 0.021
AGGCACGTGT	1.02 ± 0.015
TTACGGGTCC	0.961 ± 0.012
TATGGTCATA	0.999 ± 0.032
TTTGGGTTAC	1.04 ± 0.044
TGAATATTGT	1.04 ± 0.051
TGGAAAAGGT	1.0134 ± 0.00089
AGTATGTGCT	0.965 ± 0.024
GTTTTTAAGG	1.02 ± 0.032
TCTGTTTTAT	0.976 ± 0.017
TGTGGGGGCG	1.01 ± 0.017
TTTGCCGGGA	1.01 ± 0.019
GGTCTTTTGT	0.998 ± 0.042

— the supplement of paper PMC10126150
